In the test the target is T1, Gdi1 (GDP dissociation inhibitor) (UniProt P39958 1-451).
T1 sequence (looked up): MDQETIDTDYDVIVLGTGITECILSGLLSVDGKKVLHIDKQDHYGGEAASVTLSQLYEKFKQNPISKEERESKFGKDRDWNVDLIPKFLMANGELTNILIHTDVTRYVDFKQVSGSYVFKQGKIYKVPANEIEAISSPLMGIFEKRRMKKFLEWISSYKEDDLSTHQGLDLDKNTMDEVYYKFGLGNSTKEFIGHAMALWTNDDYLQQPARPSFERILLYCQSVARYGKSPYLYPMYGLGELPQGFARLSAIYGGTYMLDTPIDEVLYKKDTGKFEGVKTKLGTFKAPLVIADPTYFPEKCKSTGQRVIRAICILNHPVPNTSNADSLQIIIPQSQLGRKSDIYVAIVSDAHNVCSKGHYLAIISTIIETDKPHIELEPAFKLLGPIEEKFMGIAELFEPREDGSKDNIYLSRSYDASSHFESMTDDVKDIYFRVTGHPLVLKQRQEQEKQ
Kind of test: SEC. On the technique in general: SEC sorts molecules by how far they enter the pores of the column.

B1: prenylated Ypt1 (mantGDP-labeled, of the Rab/GDI substrate) (natural protein)
chain: not shown
modifications: prenylated (geranylgeranyl) at the C-terminus; loaded with mantGDP
B1: the binding result is given as “binds”.

B2: prenylated Ypt31 (mantGDP-labeled, of the Rab/GDI substrate) (natural protein, S. cerevisiae, UniProt P38555 1-223, looked up)
chain: MSSEDYGYDYDLLFKIVLIGDSGVGKSNLLSRFTKNEFNMDSKSTIGVEFATRTLEIDGKRIKAQIWDTAGQERYRAITSAYYRGAVGALIVYDISKSSSYENCNHWLSELRENADDNVAVGLIGNKSDLAHLRAVPTEESKTFAQENQLLFTETSALNSENVDKAFEELINTIYQKVSKHQMDLGDSSANGNANGASAPNGPTISLTPTPNENKKANGNNCC
modifications: prenylated (geranylgeranyl) at the C-terminus; loaded with mantGDP
Turning to B2, the binding result is “binds”.

The values above are taken from PMC6324938 (Developmental cell, 2018).
